This passage reports binding result and Kd results from article PMC11112752 (Biochemistry, 2024).

Data set [1] concerns the target T1, SCOV1 nsp1 (SARS coronavirus 1 (Urbani strain), UniProt P0C6X7 1-180). Description: EMSA. Particulars: protein: recombinant; tags: expressed as GST fusion (pGEX); untagged 19 kDa form described, tag state in EMSA not explicit; label: biotin; stem-loop (-6.83 kcal/mol, RNAfold). A general note: In EMSA bound probe runs differently from free probe, usually more slowly.

For data set [2], the target named is T2, SCOV2 nsp1 (SARS coronavirus 2, UniProt P0DTD1 1-180). Description: EMSA; 7 uM nsp1. Particulars: protein: recombinant; tags: expressed as GST fusion (pGEX); label: biotin; hairpin.
For data set [3], the target named is T1, SCOV1 nsp1. Description: EMSA; 7 uM nsp1; slow-moving complex. Particulars: protein: recombinant; tags: expressed as GST fusion (pGEX); untagged 19 kDa form described, tag state in EMSA not explicit; label: biotin; hairpin.
Data set [4] has as its target T2, SCOV2 nsp1. Kind of data set: EMSA. Particulars: protein: recombinant; tags: expressed as GST fusion (pGEX); label: biotin; hairpin.
In data set [5] the target is T1, SCOV1 nsp1. Kind of data set: EMSA; prefolded RNA; S and L complexes, n=4. Particulars: protein: recombinant; tags: expressed as GST fusion (pGEX); untagged 19 kDa form described, tag state in EMSA not explicit; label: biotin; hairpin.
The data set “pull-down” concerns the molecule itself. Kind of data set: pull-down.

As for UCCUGCUUCAACAGUGCUUGGACGGAAC (structured_RNA) [control RNA (EMSA kit)], the binding result with SCOV1 nsp1 [1] is “no binding”.

Regarding AUUAAAGGUUUAUACCUUCCCAGGUAACAAAACCAACCAACUUUC (structured_RNA) [SCOV2-SL1], the binding result in the data set with SCOV2 nsp1 [2] and in the data set with SCOV1 nsp1 [3] was “binds” each time.

For orientation: Kd means the concentration at which binding is half-saturated. AUAUUAGGUUUUUACCUACCCAGGAAAAGCCAACCAACCUCGAU (structured_RNA) [SCOV1-SL1]: the binding result with SCOV2 nsp1 [4] was “binds”. In addition, the Kd with SCOV1 nsp1 [5] turned out to be 1400 ± 120 nM.

B1: SARS coronavirus 1 nonstructural protein 1 (nsp1) (natural protein)
chain: MESLVLGVNEKTHVQLSLPVLQVRDVLVRGFGDSVEEALSEAREHLKNGTCGLVELEKGVLPQLEQPYVFIKRSDALSTNHGHKVVELVAEMDGIQYGRSGITLGVLVPHVGETPIAYRNVLLRKNGNKGAGGHSYGIDLKSYDLGDELGTDPIEDYEQNWNTKHGSGALRELTRELNGG
For the molecule B1, in “pull-down”, the binding result is “binds”.
